# Experimental data reported in PMC9482650, “Quantitative fragmentomics allow affinity mapping of interactomes” (Nature Communications, 2022).
# T1: APBA2_1, Q99767
# T1 sequence (Q99767 563-664, limits assumed, looked up): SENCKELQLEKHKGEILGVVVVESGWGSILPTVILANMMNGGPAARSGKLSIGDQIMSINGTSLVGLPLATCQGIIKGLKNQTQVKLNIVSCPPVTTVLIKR
# T2: APBA3_1, O96018
# T2 sequence (O96018 389-490, limits assumed, looked up): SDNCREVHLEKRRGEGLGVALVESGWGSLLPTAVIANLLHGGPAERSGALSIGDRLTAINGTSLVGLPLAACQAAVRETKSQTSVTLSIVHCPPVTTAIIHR
# T3: GRIP1_7, Q9Y3R0
# T3 sequence (Q9Y3R0 999-1096, limits assumed, looked up): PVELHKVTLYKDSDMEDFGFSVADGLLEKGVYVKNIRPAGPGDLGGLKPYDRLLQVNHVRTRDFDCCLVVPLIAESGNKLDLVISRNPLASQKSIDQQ
# T4: HTRA4, P83105
# T4 sequence (P83105 378-476, limits assumed, looked up): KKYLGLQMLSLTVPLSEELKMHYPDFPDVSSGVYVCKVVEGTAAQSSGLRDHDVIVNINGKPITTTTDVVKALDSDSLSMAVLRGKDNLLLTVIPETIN
# T5: LNX2_3, Q8N448
# T5 sequence (Q8N448 463-564, limits assumed, looked up): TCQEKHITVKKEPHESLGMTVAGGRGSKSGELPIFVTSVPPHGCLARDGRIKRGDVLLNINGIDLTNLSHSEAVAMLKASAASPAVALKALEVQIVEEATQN
# T6: MPP6, Q9NZW5
# T6 sequence (Q9NZW5 125-219, limits assumed, looked up): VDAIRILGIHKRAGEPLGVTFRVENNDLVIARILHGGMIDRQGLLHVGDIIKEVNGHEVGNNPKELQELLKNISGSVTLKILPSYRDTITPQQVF
# T7: PDZD2_2, O15018
# T7 sequence (O15018 329-429, limits assumed, looked up): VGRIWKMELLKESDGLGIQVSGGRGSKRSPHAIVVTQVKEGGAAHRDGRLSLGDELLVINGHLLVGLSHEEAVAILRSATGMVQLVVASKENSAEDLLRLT
# T8: RADIL, Q96JH8
# T8 sequence (Q96JH8 971-1071, limits assumed, looked up): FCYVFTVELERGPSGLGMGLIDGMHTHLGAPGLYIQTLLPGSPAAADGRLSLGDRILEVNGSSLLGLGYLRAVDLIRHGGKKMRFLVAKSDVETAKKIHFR
# T9: RAPGEF6, Q8TEU7
# T9 sequence (Q8TEU7 525-625, limits assumed, looked up): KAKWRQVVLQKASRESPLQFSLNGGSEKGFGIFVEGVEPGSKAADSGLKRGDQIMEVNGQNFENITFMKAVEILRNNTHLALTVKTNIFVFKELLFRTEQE
# T10: SNTB1, Q13884
# T10 sequence (Q13884 107-205, limits assumed, looked up): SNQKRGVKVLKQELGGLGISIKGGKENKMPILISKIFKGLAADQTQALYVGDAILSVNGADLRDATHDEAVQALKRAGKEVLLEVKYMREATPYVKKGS
# T11: SNTG1, Q9NSN8
# T11 sequence (Q9NSN8 52-150, limits assumed, looked up): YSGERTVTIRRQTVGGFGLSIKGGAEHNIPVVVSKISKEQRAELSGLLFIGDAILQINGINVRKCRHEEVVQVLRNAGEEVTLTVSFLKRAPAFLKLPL
# T12: TIAM2, Q8IVF5
# T12 sequence (Q8IVF5 885-986, limits assumed, looked up): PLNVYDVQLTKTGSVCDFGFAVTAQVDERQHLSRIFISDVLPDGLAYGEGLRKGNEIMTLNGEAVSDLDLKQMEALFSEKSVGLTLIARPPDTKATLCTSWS
# B1: DACT1, Q9NYF0 (peptide)
# chain: SGSLKLMTTV
# B2: NOSTRIN, Q8IVI9 (peptide)
# chain: SNAGNTATKA
# Target: T1, APBA2_1, Q99767
# Experiment: holdup assay
# Parameters: key: below the threshold = too weak to quantify, mostly under pKd 3.1 to 4
# Conditions: plain residues with an end cap or a label only (N-terminal biotin on a linker: ado-ado)
row,Binder,pKd
1,B1,below the threshold
2,B2,below the threshold

# Target: T2, APBA3_1, O96018
# Experiment: holdup assay
# Parameters: key: below the threshold = too weak to quantify, mostly under pKd 3.1 to 4
# Conditions: plain residues with an end cap or a label only (N-terminal biotin on a linker: ado-ado)
row,Binder,pKd
1,B1,below the threshold
2,B2,below the threshold

# Target: DLG1_1, Q12959
# Experiment: holdup assay
# Parameters: key: below the threshold = too weak to quantify, mostly under pKd 3.1 to 4
# Conditions: plain residues with an end cap or a label only (N-terminal biotin on a linker: ado-ado)
row,Binder,pKd
1,B1,4.92
2,B2,below the threshold

# Target: DLG4_1, P78352
# Experiment: holdup assay
# Parameters: key: below the threshold = too weak to quantify, mostly under pKd 3.1 to 4
# Conditions: plain residues with an end cap or a label only (N-terminal biotin on a linker: ado-ado)
# Sequence of DLG4_1, P78352 (P78352 62-152): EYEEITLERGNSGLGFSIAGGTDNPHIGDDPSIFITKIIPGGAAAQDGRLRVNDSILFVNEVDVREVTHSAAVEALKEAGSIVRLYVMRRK
row,Binder,pKd
1,B1,5.02
2,B2,below the threshold

# Target: DLG5_1, Q8TDM6
# Experiment: holdup assay
# Parameters: key: below the threshold = too weak to quantify, mostly under pKd 3.1 to 4
# Conditions: plain residues with an end cap or a label only (N-terminal biotin on a linker: ado-ado)
# Sequence of DLG5_1, Q8TDM6 (Q8TDM6 617-713): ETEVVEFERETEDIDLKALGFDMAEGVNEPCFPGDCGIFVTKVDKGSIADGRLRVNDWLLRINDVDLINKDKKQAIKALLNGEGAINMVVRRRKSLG
row,Binder,pKd
1,B1,below the threshold
2,B2,below the threshold

# Target: FRMPD2_2, Q68DX3
# Experiment: holdup assay
# Parameters: key: below the threshold = too weak to quantify, mostly under pKd 3.1 to 4
# Conditions: plain residues with an end cap or a label only (N-terminal biotin on a linker: ado-ado)
# Sequence of FRMPD2_2, Q68DX3 (Q68DX3 944-1038): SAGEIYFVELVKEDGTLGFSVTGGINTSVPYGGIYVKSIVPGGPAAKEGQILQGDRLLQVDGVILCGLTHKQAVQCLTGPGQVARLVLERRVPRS
row,Binder,pKd
1,B1,below the threshold
2,B2,below the threshold

# Target: T3, GRIP1_7, Q9Y3R0
# Experiment: holdup assay
# Parameters: key: below the threshold = too weak to quantify, mostly under pKd 3.1 to 4
# Conditions: plain residues with an end cap or a label only (N-terminal biotin on a linker: ado-ado)
row,Binder,pKd
1,B1,below the threshold
2,B2,below the threshold

# Target: GRIP2_4, Q9C0E4
# Experiment: holdup assay
# Parameters: key: below the threshold = too weak to quantify, mostly under pKd 3.1 to 4
# Conditions: plain residues with an end cap or a label only (N-terminal biotin on a linker: ado-ado)
# Sequence of GRIP2_4, Q9C0E4 (Q9C0E4 446-548): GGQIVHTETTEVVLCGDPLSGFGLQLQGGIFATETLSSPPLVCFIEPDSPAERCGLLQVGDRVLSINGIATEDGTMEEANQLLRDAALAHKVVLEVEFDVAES
row,Binder,pKd
1,B1,below the threshold
2,B2,below the threshold

# Target: GRIP2_5, Q9C0E4
# Experiment: holdup assay
# Parameters: key: below the threshold = too weak to quantify, mostly under pKd 3.1 to 4
# Conditions: plain residues with an end cap or a label only (N-terminal biotin on a linker: ado-ado)
# Sequence of GRIP2_5, Q9C0E4 (Q9C0E4 544-642): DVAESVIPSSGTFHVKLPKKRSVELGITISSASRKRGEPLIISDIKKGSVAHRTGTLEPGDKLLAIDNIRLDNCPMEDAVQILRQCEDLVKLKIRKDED
row,Binder,pKd
1,B1,below the threshold
2,B2,below the threshold

# Target: GRIP2_6, Q9C0E4
# Experiment: holdup assay
# Parameters: key: below the threshold = too weak to quantify, mostly under pKd 3.1 to 4
# Conditions: plain residues with an end cap or a label only (N-terminal biotin on a linker: ado-ado)
# Sequence of GRIP2_6, Q9C0E4 (Q9C0E4 648-740): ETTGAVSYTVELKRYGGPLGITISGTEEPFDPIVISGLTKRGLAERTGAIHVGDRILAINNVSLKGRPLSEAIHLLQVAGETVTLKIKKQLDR
row,Binder,pKd
1,B1,below the threshold
2,B2,below the threshold

# Target: T4, HTRA4, P83105
# Experiment: holdup assay
# Parameters: key: below the threshold = too weak to quantify, mostly under pKd 3.1 to 4
# Conditions: plain residues with an end cap or a label only (N-terminal biotin on a linker: ado-ado)
row,Binder,pKd
1,B1,4.26
2,B2,below the threshold

# Target: Inadl_2, Q8NI35
# Experiment: holdup assay
# Parameters: key: below the threshold = too weak to quantify, mostly under pKd 3.1 to 4
# Conditions: plain residues with an end cap or a label only (N-terminal biotin on a linker: ado-ado)
# Sequence of Inadl_2, Q8NI35 (Q8NI35 238-335): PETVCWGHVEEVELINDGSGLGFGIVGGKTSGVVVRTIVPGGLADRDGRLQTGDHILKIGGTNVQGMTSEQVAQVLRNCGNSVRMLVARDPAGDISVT
row,Binder,pKd
1,B1,below the threshold
2,B2,below the threshold

# Target: Inadl_3, Q8NI35
# Experiment: holdup assay
# Parameters: key: below the threshold = too weak to quantify, mostly under pKd 3.1 to 4
# Conditions: plain residues with an end cap or a label only (N-terminal biotin on a linker: ado-ado)
# Sequence of Inadl_3, Q8NI35 (Q8NI35 359-469): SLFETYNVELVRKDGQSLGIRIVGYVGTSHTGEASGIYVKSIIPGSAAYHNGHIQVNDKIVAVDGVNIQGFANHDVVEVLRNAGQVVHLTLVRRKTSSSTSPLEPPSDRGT
row,Binder,pKd
1,B1,below the threshold
2,B2,below the threshold

# Target: Inadl_5, Q8NI35
# Experiment: holdup assay
# Parameters: key: below the threshold = too weak to quantify, mostly under pKd 3.1 to 4
# Conditions: plain residues with an end cap or a label only (N-terminal biotin on a linker: ado-ado)
# Sequence of Inadl_5, Q8NI35 (Q8NI35 673-780): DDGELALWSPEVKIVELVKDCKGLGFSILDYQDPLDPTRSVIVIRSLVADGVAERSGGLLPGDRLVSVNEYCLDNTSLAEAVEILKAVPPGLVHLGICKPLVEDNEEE
row,Binder,pKd
1,B1,below the threshold
2,B2,below the threshold

# Target: LIMK2, P53671
# Experiment: holdup assay
# Parameters: key: below the threshold = too weak to quantify, mostly under pKd 3.1 to 4
# Conditions: plain residues with an end cap or a label only (N-terminal biotin on a linker: ado-ado)
# Sequence of LIMK2, P53671 (P53671 143-248): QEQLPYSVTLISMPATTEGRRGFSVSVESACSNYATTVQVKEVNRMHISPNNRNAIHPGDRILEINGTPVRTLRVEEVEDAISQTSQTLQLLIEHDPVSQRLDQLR
row,Binder,pKd
1,B1,below the threshold
2,B2,below the threshold

# Target: T5, LNX2_3, Q8N448
# Experiment: holdup assay
# Parameters: key: below the threshold = too weak to quantify, mostly under pKd 3.1 to 4
# Conditions: plain residues with an end cap or a label only (N-terminal biotin on a linker: ado-ado)
row,Binder,pKd
1,B1,below the threshold
2,B2,below the threshold

# Target: T6, MPP6, Q9NZW5
# Experiment: holdup assay
# Parameters: key: below the threshold = too weak to quantify, mostly under pKd 3.1 to 4
# Conditions: plain residues with an end cap or a label only (N-terminal biotin on a linker: ado-ado)
row,Binder,pKd
1,B1,below the threshold
2,B2,below the threshold

# Target: PDLIM1, O00151
# Experiment: holdup assay
# Parameters: key: below the threshold = too weak to quantify, mostly under pKd 3.1 to 4
# Conditions: plain residues with an end cap or a label only (N-terminal biotin on a linker: ado-ado)
# Sequence of PDLIM1, O00151 (O00151 1-87): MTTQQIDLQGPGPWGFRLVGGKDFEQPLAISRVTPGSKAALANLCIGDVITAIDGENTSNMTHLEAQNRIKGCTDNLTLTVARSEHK
row,Binder,pKd
1,B1,below the threshold
2,B2,below the threshold

# Target: T7, PDZD2_2, O15018
# Experiment: holdup assay
# Parameters: key: below the threshold = too weak to quantify, mostly under pKd 3.1 to 4
# Conditions: plain residues with an end cap or a label only (N-terminal biotin on a linker: ado-ado)
row,Binder,pKd
1,B1,3.92
2,B2,below the threshold

# Target: T8, RADIL, Q96JH8
# Experiment: holdup assay
# Parameters: key: below the threshold = too weak to quantify, mostly under pKd 3.1 to 4
# Conditions: plain residues with an end cap or a label only (N-terminal biotin on a linker: ado-ado)
row,Binder,pKd
1,B1,4.15
2,B2,3.57

# Target: T9, RAPGEF6, Q8TEU7
# Experiment: holdup assay
# Parameters: key: below the threshold = too weak to quantify, mostly under pKd 3.1 to 4
# Conditions: plain residues with an end cap or a label only (N-terminal biotin on a linker: ado-ado)
row,Binder,pKd
1,B1,below the threshold
2,B2,below the threshold

# Target: T10, SNTB1, Q13884
# Experiment: holdup assay
# Parameters: key: below the threshold = too weak to quantify, mostly under pKd 3.1 to 4
# Conditions: plain residues with an end cap or a label only (N-terminal biotin on a linker: ado-ado)
row,Binder,pKd
1,B1,3.64
2,B2,below the threshold

# Target: T11, SNTG1, Q9NSN8
# Experiment: holdup assay
# Parameters: key: below the threshold = too weak to quantify, mostly under pKd 3.1 to 4
# Conditions: plain residues with an end cap or a label only (N-terminal biotin on a linker: ado-ado)
row,Binder,pKd
1,B1,below the threshold
2,B2,below the threshold

# Target: T12, TIAM2, Q8IVF5
# Experiment: holdup assay
# Parameters: key: below the threshold = too weak to quantify, mostly under pKd 3.1 to 4
# Conditions: plain residues with an end cap or a label only (N-terminal biotin on a linker: ado-ado)
row,Binder,pKd
1,B1,below the threshold
2,B2,4.11

# Target: TJP1_3, Q07157
# Experiment: holdup assay
# Parameters: key: below the threshold = too weak to quantify, mostly under pKd 3.1 to 4
# Conditions: plain residues with an end cap or a label only (N-terminal biotin on a linker: ado-ado)
# Sequence of TJP1_3, Q07157 (Q07157 416-512): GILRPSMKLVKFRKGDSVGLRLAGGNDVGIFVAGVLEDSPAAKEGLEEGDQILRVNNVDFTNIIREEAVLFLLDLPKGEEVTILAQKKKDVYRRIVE
row,Binder,pKd
1,B1,below the threshold
2,B2,below the threshold
